Each block holds one molecule with its values, some of them ahead of it.
Legend:
[1] = target: microtubules polymerized from endogenous tubulin of HEK293T cell extracts (human (endogenous in HEK293T)) (UniProt P68363); experiment: co-sedimentation; MT co-sedimentation assay with HEK293T lysates only (gephyrin alone, gephyrin or mutant gephyrin with CbII(-SH3)); endogenous cellular tubulin polymerized with 2 mM GTP and 20 uM paclitaxel in MES buffer; 100,000 x g; immunoblot with mAb7a, R-20, DM1alpha; band ratios standardized to the tubulin signal
Chain of microtubules polymerized from endogenous tubulin of HEK293T cell extracts (human (endogenous in HEK293T)) (P68363 whole entry, chain 1 of 2): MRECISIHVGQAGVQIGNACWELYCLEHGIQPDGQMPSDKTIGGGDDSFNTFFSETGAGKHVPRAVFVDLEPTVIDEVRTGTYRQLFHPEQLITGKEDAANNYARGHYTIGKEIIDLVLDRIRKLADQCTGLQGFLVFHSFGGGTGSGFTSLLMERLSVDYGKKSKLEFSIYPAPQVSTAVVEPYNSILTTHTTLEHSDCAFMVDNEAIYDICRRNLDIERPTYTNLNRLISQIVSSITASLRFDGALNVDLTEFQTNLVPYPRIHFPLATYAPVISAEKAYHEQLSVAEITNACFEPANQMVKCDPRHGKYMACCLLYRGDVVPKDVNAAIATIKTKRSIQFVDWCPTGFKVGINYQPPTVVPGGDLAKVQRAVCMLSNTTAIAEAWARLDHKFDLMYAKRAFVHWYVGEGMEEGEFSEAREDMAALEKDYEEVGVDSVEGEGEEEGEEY
Chain of microtubules polymerized from endogenous tubulin of HEK293T cell extracts (human (endogenous in HEK293T)) (P07437 whole entry, chain 2 of 2, further chain): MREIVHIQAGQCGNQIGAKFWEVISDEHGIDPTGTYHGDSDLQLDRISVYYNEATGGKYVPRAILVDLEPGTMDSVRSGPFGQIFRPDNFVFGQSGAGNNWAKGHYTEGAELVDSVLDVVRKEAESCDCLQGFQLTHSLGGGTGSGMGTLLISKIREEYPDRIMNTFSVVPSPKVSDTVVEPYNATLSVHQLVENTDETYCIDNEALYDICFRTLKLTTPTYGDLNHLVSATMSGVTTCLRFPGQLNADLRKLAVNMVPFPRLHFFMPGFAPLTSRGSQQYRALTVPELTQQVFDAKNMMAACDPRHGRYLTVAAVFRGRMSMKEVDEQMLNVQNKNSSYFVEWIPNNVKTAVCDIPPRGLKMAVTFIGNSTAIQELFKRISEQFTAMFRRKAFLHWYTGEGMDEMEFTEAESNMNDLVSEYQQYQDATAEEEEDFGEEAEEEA

[2] = target: the molecule itself; experiment: native gel or EMSA; blue-native PAGE of 100 ug cytosol per lane, second dimension 12.5% SDS-PAGE, Western blot for gephyrin; NativeMARK standard

Molecule: recombinant gephyrin (P1) phosphorylated at Ser270 (detected by mAb7a) (natural protein)
ratio of the mAb7a signal in the insoluble to soluble fraction [1]: 0.17

ratio of the mAb7a signal in the insoluble to soluble fraction [1]: 1.5
Molecule: recombinant gephyrin (P1), N-terminally 6-histidine-tagged (natural protein)

B1: gephyrin from liver tissue (natural protein, UniProt Q03555 1-768, looked up)
chain: MATEGMILTNHDHQIRVGVLTVSDSCFRNLAEDRSGINLKDLVQDPSLLGGTISAYKIVPDEIEEIKETLIDWCDEKELNLILTTGGTGFAPRDVTPEKFPTFPFCGLQKGATKEVIEREAPGMALAMLMGSLNVTPLGMLSRPVCGIRGKTLIINLPGSKKGSQECFQFILPALPHAIDLLRDAIVKVKEVHDELEDLPSPPPPLSPPPTTSPHKQTEDKGVQCEEEEEEKKDSGVASTEDSSSSHITAAALAAKIPDSIISRGVQVLPRDTASLSTTPSESPRAQATSRLSTASCPTPKQIRRPDESKGVASRVGSLKVQSRCSSKENILRASHSAVDITKVARRHRMSPFPLTSMDKAFITVLEMTPVLGTEIINYRDGMGRVLAQDVYAKDNLPPFPASVKDGYAVRAADGPGDRFIIGESQAGEQPTQTVMPGQVMRVTTGAPIPCGADAVVQVEDTELIRESDDGTEELEVRILVQARPGQDIRPIGHDIKRGECVLAKGTHMGPSEIGLLATVGVTEVEVNKFPVVAVMSTGNELLNPEDDLLPGKIRDSNRSTLLATIQEHGYPTINLGIVGDNPDDLLNALNEGISRADVIITSGGVSMGEKDYLKQVLDIDLHAQIHFGRVFMKPGLPTTFATLDIDGVRKIIFALPGNPVSAVVTCNLFVVPALRKMQGILDPRPTIIKARLSCDVKLDPRPEYHRCILTWHHQEPLPWAQSTGNQMSSRLMSMRSANGLLMLPPKTEQYVELHKGEVVDVMVIGRL
notes: gephyrin endogenous in liver tissue; source: endogenous, liver protein extract
stoichiometry N [2]: 6

B2: gephyrin, endogenous in HEK293T cells (natural protein, human (endogenous in HEK293T), UniProt Q9NQX3 1-736, looked up)
chain: MATEGMILTNHDHQIRVGVLTVSDSCFRNLAEDRSGINLKDLVQDPSLLGGTISAYKIVPDEIEEIKETLIDWCDEKELNLILTTGGTGFAPRDVTPEATKEVIEREAPGMALAMLMGSLNVTPLGMLSRPVCGIRGKTLIINLPGSKKGSQECFQFILPALPHAIDLLRDAIVKVKEVHDELEDLPSPPPPLSPPPTTSPHKQTEDKGVQCEEEEEEKKDSGVASTEDSSSSHITAAAIAAKIPDSIISRGVQVLPRDTASLSTTPSESPRAQATSRLSTASCPTPKVQSRCSSKENILRASHSAVDITKVARRHRMSPFPLTSMDKAFITVLEMTPVLGTEIINYRDGMGRVLAQDVYAKDNLPPFPASVKDGYAVRAADGPGDRFIIGESQAGEQPTQTVMPGQVMRVTTGAPIPCGADAVVQVEDTELIRESDDGTEELEVRILVQARPGQDIRPIGHDIKRGECVLAKGTHMGPSEIGLLATVGVTEVEVNKFPVVAVMSTGNELLNPEDDLLPGKIRDSNRSTLLATIQEHGYPTINLGIVGDNPDDLLNALNEGISRADVIITSGGVSMGEKDYLKQVLDIDLHAQIHFGRVFMKPGLPTTFATLDIDGVRKIIFALPGNPVSAVVTCNLFVVPALRKMQGILDPRPTIIKARLSCDVKLDPRPEYHRCILTWHHQEPLPWAQSTGNQMSSRLMSMRSANGLLMLPPKTEQYVELHKGEVVDVMVIGRL
notes: human gephyrin, endogenous in HEK293T cells; also called endogenous gephyrin; source: endogenous, HEK293T protein extract (cytosol)
stoichiometry N [2]: 6

B3: gephyrin, endogenous in U2OS cells (natural protein, human (endogenous in U2OS), UniProt Q9NQX3 1-736, looked up)
chain: B2 chain
notes: human gephyrin, endogenous in U2OS osteosarcoma cells; also called endogenous gephyrin; source: endogenous, U2OS protein extract (cytosol)
stoichiometry N [2]: 6

Reference: PMC8277605, “Binding of gephyrin to microtubules is regulated by its phosphorylation at Ser270” (Histochemistry and Cell Biology, 2021)
